Legend:
Type in all cases: in vivo, human
[1] = test system: advanced metastatic hepatocellular carcinoma; experiment: Single arm phase 2 first-line trial of bavituximab and immune checkpoint inhibitor, outcome by TME phenotype; parameters: 6 month progression-free survival (6-month PFS): concentration or dose not given beside the values
Procedure: (§1) A single arm phase 2 clinical trial is run to determine whether advanced metastatic hepatocellular carcinoma tumor microenvironment phenotypes correlate to clinical responses when patients are treated with Bavituximab and an immune checkpoint inhibitor in the first-line setting. The analysis includes samples from 28 patients. RNA gene signatures are analyzed from tumor samples acquired before any treatments and TME phenotypes are determined. Patients are followed for clinical response, progression-free survival, and overall survival.
(§2) Hepatocellular carcinoma patients receive a regimen of Bavituximab plus an immune checkpoint inhibitor (anti-PD-(L)1—i.e., an inhibitor to PD-1 or PD-L1) therapy. […] Twenty-eight (28) patients are enrolled, with equal representation across the 4 stromal phenotypes (7 in each phenotype). The correlation between each TME phenotype is tested against clinical outcome data. In patients that are biomarker positive, represented by immune active (IA) and immune suppressed (IS) phenotypes, the use of the regimen of Bavituximab/immune checkpoint inhibitor confers benefit in comparison to patients classified as biomarker negative, comprised of angiogenic (A) and immune desert (ID) TME phenotype classes, as shown in the TABLE 31.

[2] = test system: recurrent/metastatic squamous carcinoma of head and neck (HNSCC); experiment: Single arm phase 2 trial of bavituximab and immune checkpoint inhibitor after progression on an immune checkpoint inhibitor, outcome by TME phenotype
Procedure: as §1, with “recurrent/metastatic squamous” for “advanced metastatic hepatocellular”, “carcinoma of head and neck (HNSCC)” for “carcinoma”, “following progression on an immune checkpoint inhibitor (e.g., nivolumab, pembrolizumab, durvalumab, atezolizumab, etc.).” for “in the first-line setting.”
as §2, with “HNSCC” for “Hepatocellular carcinoma”, “In” for “In patients that are”, “positive patients,” for “positive,”, “32.” for “31.”

[3] = test system: metastatic gliomas and glioblastoma; experiment: Clinical trial of radiation, bavituximab and a checkpoint inhibitor, best objective response versus TME biomarker status
Procedure: A clinical trial is run to treat metastatic gliomas and glioblastoma with a combination of radiation, the anti-phosphatidylserine (anti-PS) targeting antibody bavituximab, and a checkpoint inhibitor (CPI), such as a PD-(L)1, e.g. pembrolizumab or nivolumab. Tumor tissue samples from surgical resections of glioblastoma are RNA sequenced and TME phenotypes are determined. Patients are followed for ORR.

[4] = test system: advanced colorectal cancers metastatic to liver (mCRC); experiment: Phase 2 trial of navicixizumab, innate immune activating agent and PD-(L)1 agent (3L+), outcome by TME phenotype; parameters: mPFS: unit not given beside the values; details: 3L+ mCRC
Excerpt: A phase 2 clinical trial is run to determine clinical benefit in patients with advanced colorectal cancers metastatic to liver (mCRC) treated with a triplet combination of navicixizumab, an innate immune activating agent, and a PD-(L)1 agent. In this setting, regorafenib or trifluoridine/tipiracil therapy typically yield a median PFS (mPFS) of ˜2 months and median OS (mOS) of ˜7 months. […] The analysis includes enrollment of 60 patients with prospectively defined, retrospective analysis of liver metastatic lesions by the classifying the TME phenotypes as A, IA, IS or ID.
MSS+ advanced colorectal cancer patients (3L+) with liver metastases are treated with the triplet combination of navicixizumab, an anti-PD(L)1 therapy and an innate immune stimulating agent, such as the Dectin agonist Imprime PGG, the STING agonist BMS-986301 and the NLR agonist BMS-986299. ORR, mPFS, 3-month PFS rate, mOS and OS rate at 9 months are assessed across all TME phenotypes. […] patients received a greater clinical benefit than the standard of care for 3L+ mCRC with regorafenib or trifluoridine/tipiracil.

B1: Bavituximab/immune checkpoint inhibitor: bavituximab plus an immune checkpoint inhibitor (anti-PD-(L)1) (antibody, chains of the INN, looked up, V domains shown)
VH: EVQLQQSGPELEKPGASVKLSCKASGYSFTGYNMNWVKQSHGKSLEWIGHIDPYYGDTSYNQKFRGKATLTVDKSSSTAYMQLKSLTSEDSAVYYCVKGGYYGHWYFDVWGAGTTVTVSS
VL: DIQMTQSPSSLSASLGERVSLTCRASQDIGSSLNWLQQGPDGTIKRLIYATSSLDSGVPKRFSGSRSGSDYSLTISSLESEDFVDYYCLQYVSSPPTFGAGTKLELK
modifications: plus immune checkpoint inhibitor
- 6 month progression-free survival (6-month PFS) ([1]; all patients, first-line): ~57.2%
- Overall response rate (ORR) ([1]; all patients, first-line): ~32%
- overall survival (OS) ([1]; all patients, first-line): ~20 months

B2: Bavituximab plus immune checkpoint inhibitor (antibody, chains of the INN, looked up, V domains shown)
VH: B1 VH
VL: B1 VL
modifications: plus immune checkpoint inhibitor
- 6-month progression free survival (PFS) rate ([1]; Biomarker Negative (n = 14)): 35.7%
- Overall response rate (ORR) ([1]; Biomarker Negative (n = 14)): 14%
- overall survival (OS) ([1]; Biomarker Negative (n = 14)): 16.2 months
- 6-month progression free survival (PFS) rate ([1]; Biomarker Positive (n = 14)): 78.6%
- Overall response rate (ORR) ([1]; Biomarker Positive (n = 14)): 50%
- overall survival (OS) ([1]; Biomarker Positive (n = 14)): 23.8 months
- 6-month progression free survival (PFS) rate ([1]; TME phenotype A (n = 7)): 42.8%
- Overall response rate (ORR) ([1]; TME phenotype A (n = 7)): 14%
- overall survival (OS) ([1]; TME phenotype A (n = 7)): 16.7 months
- 6-month progression free survival (PFS) rate ([1]; TME phenotype IA (n = 7)): 71.4%
- Overall response rate (ORR) ([1]; TME phenotype IA (n = 7)): 43%
- overall survival (OS) ([1]; TME phenotype IA (n = 7)): 22.4 months
- 6-month progression free survival (PFS) rate ([1]; TME phenotype ID (n = 7)): 28.6%
- Overall response rate (ORR) ([1]; TME phenotype ID (n = 7)): 14%
- overall survival (OS) ([1]; TME phenotype ID (n = 7)): 15.7 months
- 6-month progression free survival (PFS) rate ([1]; TME phenotype IS (n = 7)): 85.7%
- Overall response rate (ORR) ([1]; TME phenotype IS (n = 7)): 57%
- overall survival (OS) ([1]; TME phenotype IS (n = 7)): 25.2 months
- Overall response rate (ORR) ([2]; Biomarker Negative (n = 14)): 14.3%
- overall survival (OS) ([2]; Biomarker Negative (n = 14)): 7.8 months
- progression free survival (PFS) ([2]; Biomarker Negative (n = 14)): 2.5 months
- Overall response rate (ORR) ([2]; Biomarker Positive (n = 14)): 36.4%
- overall survival (OS) ([2]; Biomarker Positive (n = 14)): 11.2 months
- progression free survival (PFS) ([2]; Biomarker Positive (n = 14)): 5.5 months
- Overall response rate (ORR) ([2]; TME phenotype A (n = 7)): 14.3%
- overall survival (OS) ([2]; TME phenotype A (n = 7)): 8.6 months
- progression free survival (PFS) ([2]; TME phenotype A (n = 7)): 2.6 months
- Overall response rate (ORR) ([2]; TME phenotype IA (n = 7)): 28.6%
- overall survival (OS) ([2]; TME phenotype IA (n = 7)): 11.0 months
- progression free survival (PFS) ([2]; TME phenotype IA (n = 7)): 5.3 months
- Overall response rate (ORR) ([2]; TME phenotype ID (n = 7)): 14.3%
- overall survival (OS) ([2]; TME phenotype ID (n = 7)): 7.0 months
- progression free survival (PFS) ([2]; TME phenotype ID (n = 7)): 2.4 months
- Overall response rate (ORR) ([2]; TME phenotype IS (n = 7)): 42.9%
- overall survival (OS) ([2]; TME phenotype IS (n = 7)): 11.4 months
- progression free survival (PFS) ([2]; TME phenotype IS (n = 7)): 5.7 months

B3: bavituximab, checkpoint inhibitor, and radiation (antibody, chains of the INN, looked up, V domains shown)
VH: B1 VH
VL: B1 VL
modifications: with checkpoint inhibitor and radiation
- Best Objective Response CR, number of patients ([3]; TME A): 0
- Best Objective Response PD, number of patients ([3]; TME A): 4
- Best Objective Response PR, number of patients ([3]; TME A): 1
- Best Objective Response SD, number of patients ([3]; TME A): 1
- Best Objective Response CR, number of patients ([3]; TME IA): 0
- Best Objective Response PD, number of patients ([3]; TME IA): 4
- Best Objective Response PR, number of patients ([3]; TME IA): 3
- Best Objective Response SD, number of patients ([3]; TME IA): 2
- Best Objective Response CR, number of patients ([3]; TME ID): 0
- Best Objective Response PD, number of patients ([3]; TME ID): 6
- Best Objective Response PR, number of patients ([3]; TME ID): 1
- Best Objective Response SD, number of patients ([3]; TME ID): 1
- Best Objective Response CR, number of patients ([3]; TME IS): 0
- Best Objective Response PD, number of patients ([3]; TME IS): 4
- Best Objective Response PR, number of patients ([3]; TME IS): 4
- Best Objective Response SD, number of patients ([3]; TME IS): 4

B4: navicixizumab, an anti-PD(L)1 therapy and an innate immune stimulating agent (antibody, chains of the INN, looked up, V domains shown)
VH: QVQLVQSGAEVKKPGASVKISCKASGYSFTAYYIHWVKQAPGQGLEWIGYISNYNRATNYNQKFKGRVTFTTDTSTSTAYMELRSLRSDDTAVYYCARDYDYDVGMDYWGQGTLVTVSS
VL: DIVMTQSPDSLAVSLGERATISCRASESVDNYGISFMKWFQQKPGQPPKLLIYAASNQGSGVPDRFSGSGSGTDFTLTISSLQAEDVAVYYCQQSKEVPWTFGGGTKVEIK
VH2: QVQLVQSGAEVKKPGASVKVSCKASGYTFTNYWMHWVRQAPGQGLEWMGDINPSNGRTSYKEKFKRRVTLSVDKSSSTAYMELSSLRSEDTAVYFCTIHYDDKYYPLMDYWGQGTLVTVSS
VL2: B4 VL
modifications: with anti-PD(L)1 and innate immune stimulant
- ORR ([4]; TME phenotype A (n = 12)): 25%
- PFS rate (3 month) ([4]; TME phenotype A (n = 12)): 30%
- mOS ([4]; TME phenotype A (n = 12)): 12 mos
- mPFS ([4]; TME phenotype A (n = 12)): 6
- ORR ([4]; TME phenotype IA (n = 12)): 35%
- OS rate (9 month) ([4]; TME phenotype IA (n = 12)): 50%
- PFS rate (3 month) ([4]; TME phenotype IA (n = 12)): 30%
- mOS ([4]; TME phenotype IA (n = 12)): 12 mos
- mPFS ([4]; TME phenotype IA (n = 12)): 6
- ORR ([4]; TME phenotype ID (n = 24)): 20%
- OS rate (9 month) ([4]; TME phenotype ID (n = 24)): 40%
- PFS rate (3 month) ([4]; TME phenotype ID (n = 24)): 30%
- mOS ([4]; TME phenotype ID (n = 24)): 10 mos
- mPFS ([4]; TME phenotype ID (n = 24)): 4
- ORR ([4]; TME phenotype IS (n = 12)): 30%
- OS rate (9 month) ([4]; TME phenotype IS (n = 12)): 45%
- PFS rate (3 month) ([4]; TME phenotype IS (n = 12)): 30%
- mOS ([4]; TME phenotype IS (n = 12)): 11 mos
- mPFS ([4]; TME phenotype IS (n = 12)): 5
